In patent US11278600B2, “Human alpha-galactosidase variants” (Codexis, Inc., priority 2014, dated 2022):
Substitutions are numbered along the chain they refer to.

B1: 303 (protein)
chain: LDNGLARTPTMGWLHWERFMCNLDCQEEPDSCISEKLFMEMAELMVSEGWKDAGYEYLCIDDCWMAPQRDSEGRLQADPQRFPHGIRQLANYVHSKGLKLGIYADVGNKTCAGFPGSFGYYDIDAQTFADWGVDLLKFDGCYCDSLENLADGYKHMSLALNRTGRSIVYSCEWPLYMWPFQKPNYTEIRQYCNHWRNFADIDDSWASIKSILDWTSFNQERIVDVAGPGGWNDPDMLVIGNFGLSWDQQVTQMALWAIMAAPLFMSNDLRHISPQAKALLQDKDVIAINQDPLGKQGYQLRQGDNFEVWERPLSGLAWAVAIINRQEIGGPRSYTIEVASLGDGVACNPACFITQLLPVKRKLGLYNWTSRLKSHVNPTGTVLLQLENTMQMSLKDLL
modifications: Synthetic Polypeptide sequence of Variant No. 303 of mature Human GLA
B2: 309 (protein)
chain: B1 chain with K96I, F217R, Q302K, E337P, D343G, A350G, L365F, V376I
modifications: Synthetic Polypeptide sequence of Variant No. 309 of mature Human GLA
B3: 308 (protein)
chain: B1 chain with K96I, F217R, D247N, E337A, D343K, L365F, T369S, V376I
modifications: Synthetic Polypeptide sequence of Variant No. 308 of mature Human GLA
B4: 313 (protein)
chain: B1 chain with L100F, A125S, I208V, R221K, D247N, Q302K, E337A, D343G, L365F, V376I
modifications: Synthetic Polypeptide sequence of Variant No. 313 of mature Human GLA
B5: 306 (protein)
chain: B1 chain with R221K, Q302K, E337A, D343K, L365F, V376I
modifications: Synthetic Polypeptide sequence of Variant No. 306 of mature Human GLA
B6: 312 (protein)
chain: B1 chain with K96I, Q302K, L316D, E337P, D343K, A350G, K362Q, L365F, V376I
modifications: Synthetic Polypeptide sequence of Variant No. 312 of mature Human GLA
B7: 310 (protein)
chain: B1 chain with K96I, E337A, D343K, A350G, L365F, T369S, V376I
modifications: Synthetic Polypeptide sequence of Variant No. 310 of mature Human GLA
B8: 305 (protein)
chain: B1 chain with D247N, Q302K, L316D, E337P, D343K, L365F, T369S, V376I
modifications: Synthetic Polypeptide sequence of Variant No. 305 of mature Human GLA
B9: 311 (protein)
chain: B1 chain with K96I, Q302K, L316D, E337P, D343K, A350G, L365F, T369S, V376I
modifications: Synthetic Polypeptide sequence of Variant No. 311 of mature Human GLA
B10: 307 (protein)
chain: B1 chain with R221K, D247N, Q302K, E337A, D343G, L365F, T369S
modifications: Synthetic Polypeptide sequence of Variant No. 307 of mature Human GLA
B11: 314 (protein)
chain: B1 chain with L100F, I208V, Q302K, I322V, E337A, L365F
modifications: Synthetic Polypeptide sequence of Variant No. 314 of mature Human GLA
B12: 304 (protein)
chain: B1 chain with D247N, Q302K, L316D, E337P, D343K, A350G, K362Q, L365F, V376I
modifications: Synthetic Polypeptide sequence of Variant No. 304 of mature Human GLA

Tests used:
Type in all cases: biochemical
[1] = HTP-analysis of yeast culture supernatants, no challenge (MUGal hydrolysis); conditions: activity of the variant/activity of Rd3BB (SEQ ID NO: 13), yeast culture supernatant
In short: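 Activity read as 4-methylumbelliferyl α-D-galactopyranoside hydrolysis: fluorescence (355/448 nm) after sodium carbonate stop, following 30-180 min at 37° C with 2 mM MUGal stock at pH 4.6–4.8. Enzyme source is unchallenged culture supernatant of INVSc1 yeast expressing GLA variants, grown 66-84 h at 30° C.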

[2] = HTP-analysis of supernatants pretreated with acid (MUGal hydrolysis); conditions: challenge at pH 4.0; activity of the variant/activity of Rd3BB (SEQ ID NO: 13); yeast culture supernatant
In short: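 Yeast INVSc1 supernatant, GLA variants; acid challenge: McIlvaine pH 3.3-4.3, 37° C., 1-3 h. Assay: MUGal in McIlvaine pH 4.8 plus citrate pH 4.3, 37° C., 30-180 min, Na2CO3 stop, Ex 355/Em 448 nm.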

[3] = HTP-analysis of supernatants pretreated with base (MUGal hydrolysis); conditions: challenge at pH 8.2; activity of the variant/activity of Rd3BB (SEQ ID NO: 13); yeast culture supernatant
In short: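 Fluorescence of released 4-MU (Ex 355 nm, Em 448 nm) after carbonate quench reports MUGal hydrolysis by GLA variants secreted from INVSc1 yeast. Before the acidic (pH 4.3-4.8) 30-180 min reaction at 37° C, supernatants had been pre-incubated at pH 7.0-9.7 for 1-18 h at 37° C.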

[4] = HTP-analysis of supernatants pretreated with bovine serum (MUGal hydrolysis); conditions: activity of the variant/activity of Rd3BB (SEQ ID NO: 13), yeast culture supernatant
In short: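 Yeast INVSc1 culture supernatants containing secreted GLA variants were mixed with bovine serum (20:80) and held 1 h at 37° C. Serum-treated samples then reacted with MUGal (4 mM stock) in citrate/McIlvaine buffer (pH 4.3/4.8) for 180 min at 37° C., were quenched with sodium carbonate, and read by fluorescence (Ex 355, Em 448 nm).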

Molecule	Relative Activity of GLA Variants After No Challenge (NC) [1]	Relative Activity of GLA Variants After Challenge at pH 4.0 [2]	Relative Activity of GLA Variants After Challenge at pH 8.2 [3]	Relative Activity of GLA Variants After Challenge with Serum [4]
B1	++ (++ = >1.5 to 2.5 relative activity over Rd3BB (SEQ ID NO: 13))	++ (++ = >1.5 to 2.5 relative activity over Rd3BB (SEQ ID NO: 13))	++ (++ = >1.5 to 2.5 relative activity over Rd3BB (SEQ ID NO: 13))	+ (+ = 0.5 to 1.5 relative activity over Rd3BB (SEQ ID NO: 13))
B2	+ (+ = 0.5 to 1.5 relative activity over Rd3BB (SEQ ID NO: 13))	++ (++ = >1.5 to 2.5 relative activity over Rd3BB (SEQ ID NO: 13))	+++ (+++ = >2.5 relative activity over Rd3BB (SEQ ID NO: 13))	++ (++ = >1.5 to 2.5 relative activity over Rd3BB (SEQ ID NO: 13))
B3	− (− = <0.5 relative activity to Rd3BB (SEQ ID NO: 13))	− (− = <0.5 relative activity to Rd3BB (SEQ ID NO: 13))	− (− = <0.5 relative activity to Rd3BB (SEQ ID NO: 13))	+ (+ = 0.5 to 1.5 relative activity over Rd3BB (SEQ ID NO: 13))
B4	+ (+ = 0.5 to 1.5 relative activity over Rd3BB (SEQ ID NO: 13))	+ (+ = 0.5 to 1.5 relative activity over Rd3BB (SEQ ID NO: 13))	− (− = <0.5 relative activity to Rd3BB (SEQ ID NO: 13))	+ (+ = 0.5 to 1.5 relative activity over Rd3BB (SEQ ID NO: 13))
B5	+ (+ = 0.5 to 1.5 relative activity over Rd3BB (SEQ ID NO: 13))	++ (++ = >1.5 to 2.5 relative activity over Rd3BB (SEQ ID NO: 13))	++ (++ = >1.5 to 2.5 relative activity over Rd3BB (SEQ ID NO: 13))	++ (++ = >1.5 to 2.5 relative activity over Rd3BB (SEQ ID NO: 13))
B6	++ (++ = >1.5 to 2.5 relative activity over Rd3BB (SEQ ID NO: 13))	+++ (+++ = >2.5 relative activity over Rd3BB (SEQ ID NO: 13))	+++ (+++ = >2.5 relative activity over Rd3BB (SEQ ID NO: 13))	+++ (+++ = >2.5 relative activity over Rd3BB (SEQ ID NO: 13))
B7	− (− = <0.5 relative activity to Rd3BB (SEQ ID NO: 13))	+ (+ = 0.5 to 1.5 relative activity over Rd3BB (SEQ ID NO: 13))	+ (+ = 0.5 to 1.5 relative activity over Rd3BB (SEQ ID NO: 13))	+ (+ = 0.5 to 1.5 relative activity over Rd3BB (SEQ ID NO: 13))
B8	+ (+ = 0.5 to 1.5 relative activity over Rd3BB (SEQ ID NO: 13))	+ (+ = 0.5 to 1.5 relative activity over Rd3BB (SEQ ID NO: 13))	+ (+ = 0.5 to 1.5 relative activity over Rd3BB (SEQ ID NO: 13))	++ (++ = >1.5 to 2.5 relative activity over Rd3BB (SEQ ID NO: 13))
B9	+ (+ = 0.5 to 1.5 relative activity over Rd3BB (SEQ ID NO: 13))	+ (+ = 0.5 to 1.5 relative activity over Rd3BB (SEQ ID NO: 13))	++ (++ = >1.5 to 2.5 relative activity over Rd3BB (SEQ ID NO: 13))	+ (+ = 0.5 to 1.5 relative activity over Rd3BB (SEQ ID NO: 13))
B10	+ (+ = 0.5 to 1.5 relative activity over Rd3BB (SEQ ID NO: 13))	+ (+ = 0.5 to 1.5 relative activity over Rd3BB (SEQ ID NO: 13))	+ (+ = 0.5 to 1.5 relative activity over Rd3BB (SEQ ID NO: 13))	+ (+ = 0.5 to 1.5 relative activity over Rd3BB (SEQ ID NO: 13))
B11	+ (+ = 0.5 to 1.5 relative activity over Rd3BB (SEQ ID NO: 13))	++ (++ = >1.5 to 2.5 relative activity over Rd3BB (SEQ ID NO: 13))	++ (++ = >1.5 to 2.5 relative activity over Rd3BB (SEQ ID NO: 13))	+ (+ = 0.5 to 1.5 relative activity over Rd3BB (SEQ ID NO: 13))
B12	++ (++ = >1.5 to 2.5 relative activity over Rd3BB (SEQ ID NO: 13))	++ (++ = >1.5 to 2.5 relative activity over Rd3BB (SEQ ID NO: 13))	++ (++ = >1.5 to 2.5 relative activity over Rd3BB (SEQ ID NO: 13))	++ (++ = >1.5 to 2.5 relative activity over Rd3BB (SEQ ID NO: 13))
